Assay [1] has as its target T1, human IL-17 receptor (IL-17R, PRO1) as tested in the receptor/ligand screen (human, UniProt Q96F46 33-320, limits assumed).
T1 construct: also called IL-7R (as misprinted)
As to the kind of experiment: receptor/ligand screen, FIG. 14. The text has this: A PRO polypeptide of the present invention suspected of being a ligand for a receptor is expressed as a fusion protein containing the Fc domain of human IgG (an immunoadhesin). Receptor-ligand binding is detected by allowing interaction of the immunoadhesin polypeptide with cells (e.g. Cos cells) expressing candidate PRO polypeptide receptors and visualization of bound immunoadhesin with fluorescent reagents directed toward the Fc fusion domain and examination by microscope. Cells expressing candidate receptors are produced by transient transfection, in parallel, of defined subsets of a library of cDNA expression vectors encoding PRO polypeptides that may function as receptor molecules. Cells are then incubated for 1 hour in the presence of the PRO polypeptide immunoadhesin being tested for possible receptor binding. The cells are then washed and fixed with paraformaldehyde. The cells are then incubated with fluorescent conjugated antibody directed against the Fc portion of the PRO polypeptide immunoadhesin (e.g. FITC conjugated goat anti-human-Fc antibody). The cells are then washed again and examined by microscope. A positive interaction is judged by the presence of fluorescent labeling of cells transfected with cDNA encoding a particular PRO polypeptide receptor or pool of receptors and an absence of similar fluorescent labeling of similarly prepared cells that have been transfected with other cDNA or pools of cDNA. If a defined pool of cDNA expression vectors is judged to be positive for interaction with a PRO polypeptide immunoadhesin, the individual cDNA species that comprise the pool are tested individually (the pool is “broken down”) to determine the specific cDNA that encodes a receptor able to interact with the PRO polypeptide immunoadhesin.
In another embodiment of this assay, an epitope-tagged potential ligand PRO polypeptide (e.g., 8 histidine “His” tag) is allowed to interact with a panel of potential receptor PRO polypeptide molecules that have been expressed as fusions with the Fc domain of human IgG (immunoadhesins). Following a 1 hour co-incubation with the epitope tagged PRO polypeptide, the candidate receptors are each immunoprecipitated with protein A beads and the beads are washed. Potential ligand interaction is determined by Western blot analysis of the immunoprecipitated complexes with antibody directed towards the epitope tag.

A further assay relates to TK-10 cells. Put plainly: IL-8 and IL-6 production in TK-10 cells (ELISA of conditioned media). In kind it is cell-based, human. As to conditions: TK-10 cells, 24 hours, IL-8 ELISA. The method, then: Fractions were tested by incubation with TK-10 cells for 24 hours (0.033 microliters fraction/ml of cell culture media). Conditioned media was then collected and IL-8 and IL-6 concentration measurements were performed on each fraction by ELISA. […] Gels, blots, amino acid sequence and activity assays were run on this fraction (FIG. 3). Alternatively, fraction 31 and the remaining volume of fraction 32, from the HiLoad S Sepharose run were pooled and dialyzed against Buffer A for eight hours using a 10 kD cutoff membrane and passed through a 0.2 micron filter. […] Fractions 26-43 were assayed and protein concentrations were determined by amino acid analysis. Pure IL-17A/F was identified in fractions 31-33 as a single protein with apparent molecular mass of 30-35 kD. The concentrations of fractions 31, 32 and 33 were 0.258, 0.359 and 0.291 mg/ml respectively.
IL-17A/F, IL-17 and IL-17F were incubated with TK-10 cells at the indicated concentrations for 24 hours.
TK-10 conditioned media was collected and analyzed by IL-8 ELISA and IL-6 ELISA.
Background: In an ELISA, binding on a coated surface is turned into a signal by an enzyme label.

Assay [2] addresses T2, IL-17R (Homo sapiens, UniProt Q96F46).
T2 construct: the extracellular domains (ECDs) of either of the two receptors IL-17R (designated PRO1) and IL-17RH1 (PRO5801)
As to the kind of experiment: SPR (BIAcore) binding measurements. As to conditions: IL-17R up to 1 ┘M. The procedure:
(§1) The kinetics and affinity of IL-17, IL-17E (PRO10272), or IL-17F (PRO20110) binding to IL-17R or IL-17RH1 (PRO5801) were determined by SPR measurements on a Pharmacia BIAcore 1000 instrument (Phamacia Biosensor, Piscataway N.J.). IL-17 ligand or receptor was immobilized onto a flow cell of a CM5 sensor chip via random coupling to amino groups, N-hydroxysuccinimide chemistry, by using a protocol developed by the manufacturer. An immobilization level of about 500 resonance units (RU) was obtained for IL-17R, IL-17RH1, and IL-17F, whereas IL-17 and IL-17E immobilization levels were 1200 and 1500 RU, respectively. A strong signal was obtained for IL-17R binding to immobilized IL-17. […] After blocking unreacted sites with ethanolamine, binding measurements were performed using a flow rate of 25 ┘L/min. Sensorgrams-were obtained for a series of six, two-fold serially diluted protein solutions. The highest concentration used was 1000 or 500 nM protein and the solutions were prepared in the running buffer, PBS containing 0.05% Tween-20. The sensor chip surface was regenerated between binding cycles by injection of a 25 ┘L aliquot of 0.1 M acetic acid, 0.2 M NaCl, pH 3 to elute non-covalent bound protein. Sensorgrams were evaluated according to a 1:1 binding model by non-linear regression analysis using software supplied by the manufacturer. In separate experiments to measure competition between IL-17 variants for binding receptors, a fixed concentration of receptor was incubated with a varied concentration of IL-17 protein followed by injection of this mixture onto a flow cell having immobilized IL-17 protein. The amount of bound receptor was determined from the resonance signal obtained after completion of the association phase.
(In SPR one partner is held on a chip, and binding of the other changes the refractive index at the surface.)

The target of another assay is T3, IL-17RH1 (PRO5801) (Homo sapiens, UniProt Q9NRM6).
T3 construct: the extracellular domains (ECDs) of either of the two receptors IL-17R (designated PRO1) and IL-17RH1 (PRO5801)
T3 sequence (Q9NRM6 18-292 limits assumed): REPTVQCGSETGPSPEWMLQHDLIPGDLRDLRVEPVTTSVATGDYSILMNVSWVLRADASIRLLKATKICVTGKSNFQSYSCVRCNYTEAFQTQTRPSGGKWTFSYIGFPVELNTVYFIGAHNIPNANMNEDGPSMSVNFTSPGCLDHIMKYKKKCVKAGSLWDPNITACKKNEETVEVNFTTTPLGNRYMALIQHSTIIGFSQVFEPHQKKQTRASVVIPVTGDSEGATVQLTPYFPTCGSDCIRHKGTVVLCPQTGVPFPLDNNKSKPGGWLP
Put plainly: SPR (BIAcore) binding measurements. The conditions noted are these: IL-17RH1 up to 0.5 ┘M. The method, then: as §1

Assay [3] has as its target T2, IL-17R. As to the kind of experiment: SPR competition for receptor binding to immobilized IL-17. As to conditions: IL-17R 500 nM; IL-17F at 2 ┘M. The method, then: as §1, with “The sensor chip surface was regenerated between binding cycles by injection of a 25 ┘L aliquot of 0.1 M acetic acid, 0.2 M NaCl, pH 3 to elute non-covalent bound protein.” left out, “In separate experiments to measure competition between IL-17 variants for binding receptors, a fixed concentration of receptor was incubated with a varied concentration of IL-17 protein followed by injection of this mixture onto a flow cell having immobilized IL-17 protein.” left out, “phase. […]” for “phase.”

A further assay deals with T4, IL-17RH1 (Homo sapiens, UniProt Q9NRM6).
T4 construct: the extracellular domains (ECDs) of either of the two receptors IL-17R (designated PRO1) and IL-17RH1 (PRO5801)
T4 sequence (Q9NRM6 18-292 limits assumed): T3 sequence (Q9NRM6 18-292 limits assumed)
As to the kind of experiment: SPR competition for receptor binding to immobilized IL-17E. As to conditions: IL-17RH1 31 nM; IL-17F at 1.3 ┘M. The method, then:
as §1, with “The sensor chip surface was regenerated between binding cycles by injection of a 25 ┘L aliquot of 0.1 M acetic acid, 0.2 M NaCl, pH 3 to elute non-covalent bound protein.” left out, “In separate experiments to measure competition between IL-17 variants for binding receptors, a fixed concentration of receptor was incubated with a varied concentration of IL-17 protein followed by injection of this mixture onto a flow cell having immobilized IL-17 protein.” left out, “phase. […]” for “phase.”

B1: PRO21175 (IL-17D ligand) (ligand, UniProt Q8TAD2 16-202, looked up)
chain: AGAPRAGRRPARPRGCADRPEELLEQLYGRLAAGVLSAFHHTLQLGPREQARNASCPAGGRPADRRFRPPTNLRSVSPWAYRISYDPARYPRYLPEAYCLCRGCLTGLFGEEDVRFRSAPVYMPTVVLRRTPACAGGRSVYTEAYVTIPVGCTCVPEPEKDADSINSSIDKQGAKLLLGPNDAPAGP
For B1, in assay [1], the binding result is on record as “no binding”.

B2: IL-17F: human IL-17F ligand, SEQ ID NO:4 (protein, listed as Homo sapiens)
chain: MTVKTLHGPAMVKYLLLSILGLAFLSEAAARKIPKVGHTFFQKPESCPPVPGGSMKLDIGIINENQRVSMSRNIESRSTSPWNYTVTWDPNRYPSEVVQAQCRNLGCINAQGKEDISMNSVPIQQETLVVRRKHQGCSVSFQLEKVLVTVGCTCVTPVIHHVQ
As for B2, in the assay on TK-10 cells, the IL-8 production result is “production of IL-8”. Further, the “binding of IL-17R to immobilized IL-17F” value in the assay with IL-17R [2] was “no binding”. Also, the “binding of IL-17RH1 to immobilized IL-17F” value with IL-17RH1 (PRO5801) is “no binding”. Further, the “competition for binding of IL-17R to immobilized IL-17” value in the assay with IL-17R [3] was “no competition”. The “competition for binding of IL-17RH1 to immobilized IL-17E” value with IL-17RH1 was “could not block binding”.

The values are drawn from US20070160576A1, “IL-17A/F heterologous polypeptides and therapeutic uses thereof” (Genentech, Inc., priority 2001, published 2007).
